# In the DeepSol protein solubility set:
# Test: soluble on expression in E. coli; label from the status in PepcDB or PDB records
row,Sequence,soluble on expression in E. coli
1,MGFQLRGTGTQELSIKELDLSARDAYGTTIKMLKQQLESSGVRVHAGAPYKLVLLSEENSQRTLSYTGGGNSAEYEIGTTLRYEILTHDNLHLLDDKLEVQKVFLHDGNNITGSDQESSETRKEMRRDLIQRMLIRLQLLTPEQLAQLQATAEAKAKAEADALEAARKAEAETPQQSPMELPNQLEHHHHHH,not soluble
2,MSYPSMSSFSTNVPDSENSSRSSVDGYNLKDTTSEKIKQFRENNKRKTSNSSSEEEPETEEGDPSRKLSSKSAEDKFVGRGIDAPRGRIANIRRESSCSVDSEAAHERLTKASQQVSTGFDDIALDSERSPGTSAEFRRRAPSFNTVIGEPISVVTNAFIPHSCSPSPTRQQADLIKQCYSPSTQQMVRPNISYSPSPRESPAQSPTRHAHKLKFQRAESPICRQPIKRKLTVTTLAETDIKRLFVPRSNTSPLVTDKTFPYPQNVGQLFESASTSSEFSSFSVPHSPGPLRAMTPLSSVSVGDQEENSPSVKDAEEKTTDNDEEMQDVEMSDNGTEVDDDLIRAATEAPLPDDDDQNDFAY,not soluble
3,MSLERQTLKQKLSTLIQPLQTAKRGAPLTNRTLSATTCQQIESLVTAIEALNPNLSPLLYSPQLLDGNWWLNYSTAREIRSLDKLPLGLKVGRIYQIINVPNQSFLNQAFVYHPLGLAKGYVKVTAKFEIAKPAGTVLPDKRINVEFLERMISIQKLMGVPTPKLDPAKVVPARSPEGRIPFLEITYLDDDLRIGRGGEGSLFVLSKVSEVTPLEHHHHHH,not soluble
4,MGLFDRLRAGLAKTRERLLKAIPWGGDPEEVLEELEMALLAADVGVAATEELLKEVRASGRRDLKEVVKEKLVQMLEPDERRATLRKLGFRPQKLRPVEPQGHVVMVVGVNGVGKTTTIAKLGRLYQGLGKKVLFCAGDTFRAAGGAQLAEWGKRLGIPVIQGPEGADPAALAFDAAKARRARGLDLLFVDTAGRLHTKQGLMEELKKVKRAIAKADPGEPGEVWLVLDAVTGQNGLEQAKRFHEAVGLTGVIVTKLDGTAKGGVLVPIVRTLKVPIRFIGVGEGPDDLQPFDAEAFVEALLEA,soluble
5,CSEPYEGKVAVASVILNRLQNPEFPKSIGDVIKQKYAFSCIRDGKIEVTPNQECYNAVMDALHGKDPTPKAMYFYNPRISTSSWMNNIQKENVKVIGNHVFFKTYKE,not soluble
6,MMIKIAVVGSKEFMENLFPIAQKLEGIEIDPYIYLHPAESSELLKCLKPCDVIFFSGALPYYMAKEIREQLRIPSTYLQQDETTVASSILSIMYHQSIQPHNISIDLVDRSFITNVFHDIGIKESPQVLDYENMLWSKDEINRVIDFHVAKYQYGEAHLALTSIHAVYDELQKIGIPSERMIDPTQSIIHGLKDAKIKAELAKSYSATVGACIISSLELRASLLEKLDVISKELRGSFKQVDEMTCILYTTRGDIESIIKTNAIDNLFASIEGTIAIGFGYGKTVKEAEQNAKIAQSFAKNYPIDRCFYILASDKDLFGPFPKEQRVQSLKNDNPELMKIAKETKLSPANLSKIIQFSQSHPSLKFTAADLSEYLQVTRRSTERLLKKLVDYGYAHICGEEMPYQQGRPRALYELNFPLFLSF,not soluble
7,MNVTEQNSHQILIQKLLVSIHYLTLFRDELKLVERTPSILGGEFPAHLVQSELGDIVAAIDTLDMQQRLIESTFWYEESAFKLMNKTLDIVDNWIKGVDHLIDLCQSKEVFQIIIGDKRIRVFGVLSDVFSSLKVSALSLKEAPIPDVLYEHIQRVNLEEEAFIKYYQSPKVPTGEFE,not soluble
8,SEILISAVATDLISRFISSVTQNYRNHIHKEDDRRRLERILLRMHSVVEEAGGRHITNQGMILQLKGLVEGFYLGYYMLDKIKFQPPEYEVSHEIQSFALSACNSAKRFRFADAISKRTPVAFGSRSRTNLKDVVDGLETKIADMREFVILLGSHPRLPRQPYSTYLYIDNCMFGRRIEKEQVINFLLCNDPHDPYVSILPIIGPQRIGKKTLVQHACLDERVRDCFSHIFFFKEDDLKTGELSLNSKASQGKYLFVIEFIWDVDEAAWTKFQSYLQNMPATGIKVVVIGRTEDIAKFGTSQPIRVKRLSEEEYWYYFKALAFGSMDPDEHPKLASLAMQLSTEMNGSFLGATMFGELLRANPNTQFWKRILLFLRELARKHLTSSGLHPEDLFERNIPVDLSRIAVVDGQVQDFMVYDVRVAGPAEGELPKLTSRDILLGGDIPVEDKFDVLVWRSRIPPYCNYIVTYEKQKPRRMVGKRNTIYL,soluble
9,MVKVTYDIPTCEDYCALRINAGMSPKTREAAEKGLPNALFTVTLYDKDRLIGMGRVIGDGGTVFQIVDIAVSKSYQGQDYGSLIMEHIMKYIKNVSVESAYVSLIADYPADKLYAKFGFMPTEPDSGGMYIKY,soluble
10,GSGEAKPQAPELRIFPKKMDAELGQKVDLVCEVLGSVSQGCSWLFQNSSSKLPQPTFVVYMASSHNKITWDEKLNSSKLFSAMRDTNNKYVLTLNKFSKENEGYYFCSVISNSVMYFSSVVPVLQKVNSTTTKPVLRTPSPVHPTGTSQPQRPEDCRPRGSVKGTG,soluble
11,TSKQRYSGKVHLCVARYSYNPFDGPNENPEAELPLTAGKYLYVYGDMDEDGFYEGELLDGQRGLVPSNFVDFVQDNESRLAST,soluble
12,MSLHLNDQWVLCAPTDNFENKKEIFFTPQGAFGTGLHETTQDILKFIVEEDFEGKSLLDLGTGSGILSIAAGVKGASKIVAVDIRDVEDEVLLNASLNELENIEVVVGNVLHEEYKLNEKFDWIFINIGGEETAMFMDFIEEHIEKTGKLLVSGLVEWSFDWVKEKVENKGFKLNKKFQTNEWCTAIFSKEGHHHHHH,soluble
13,MTSDGATSTSAAAAAAAAAAARRKPSWRERENNRRRERRRRAVAAKIYTGLRAQGDYNLPKHCDNNEVLKALCVEAGWVVEEDGTTYRKPLPGEIAGTSSRVTPYSSQNQSPLSSAFQSPIPSYQVSPSSSSFPSPSRGEPNNNMSSTFFPFLRNGGIPSSLPSLRISNSCPVTPPVSSPTSKNPKPLPNWESIAKQSMAIAKQSMASFNYPFYAVSAPASPTHRHQFHTPATIPECDESDSSTVDSGHWISFQKFAQQQPFSASMVPTSPTFNLVKPAPQQMSPNTAAFQEIGQSSEFKFENSQVKPWEGERIHDVGMEDLELTLGNGKARG,soluble
14,MASSASDGTHERSAFRLSPPVLSGAMGPFMHTGLYVAQSWRDYLGQQPDKLPIARPTIALAAQAFRDEIVLLGLKARRPVSNHRVFERISQEVAAGLEFYGNRRWLEKPSGFFAQPPPLTEVAVRKVKDRRRSFYRIFFDSGFTPHPGEPGSQRWLSYTANNREYALLLRHPEPRPWLVCVHGTEMGRAPLDLAVFRAWKLHDELGLNIVMPVLPMHGPRGQGLPKGAVFPGEDVLDDVHGTAQAVWDIRRLLSWIRSQEEESLIGLNGLSLGGYIASLVASLEEGLACAILGVPVADLIELLGRHCGLRHKDPRRHTVKMAEPIGRMISPLSLTPLVPMPGRFIYAGIADRLVHPREQVTRLWEHWGKPEIVWYPGGHTGFFQSRPVRRFVQAALEQSGLLDAPRTQRDRSA,not soluble
15,GACEQNEDWVVNEPMQSFEENPEYAPLNTIPDWVSEKVTPKEYELWRTMSSRYEINYSFLKKDISEKRKKEIYDCINNICERIEKGQINKYEGFLNIADEDGTTLSDSQYFGRIATRSPEGGAEYKTNGCTLYTHSLGPYIKAAVTYKKSDDDVTITSSSVYTGSPYLGNDPSFSGASSVSYDKDKKLIAASCSGTLSFKDGSRKVEVTVQKTGFMIP,soluble
16,MNFVTLTSDEFNAFTTKHFSHYTQSAIHYNHRVDLKGDVHLVGVKDDNGQVIAGCLLTEARTLKFFKYFYTHRGPVMDYTNQSLVAFFFKALTSYLKKHNCLYVLVDPYLIENLRNADGEIVKSYDNRAFVRTMDKLGYKHQGFPVGYDSMSQIRWLSVLDLKDKTEDQLLKEMDYQTRRNIKKTYDIGVKTKTLTIDETQTFFDLFHMAEEKHGFKFRELPYFEEMQKLYDDHAMLKLAYIDLNEYLKTLQLKQQQLTAELSGVEEALEESPNSKKNKTKRTQLEQQLNSNKRKIDNTIEQIEQDGAVLNLASALFIYNEHEVYYLSSGSNPKYNAYMGAYHLQWEMIKFAKAHHIDRYNFYGITGDFSESSEDYGVQQFKKGFNAHVEEYIGDFIKPIKPLLYKVQTYLNHKRR,not soluble
17,MGLHPTLGEHGERELLALQKVDYPKGDVKAQAKHTARTLLECYNCHSLGEYNTLLNLYNITVYEVRGSVDGKEYHGIMYGALDDNGQQVGTPFKSSKFGKVFGYEALQKKFAASAEKVKKDNLPERLEHHHHHH,soluble
